The values that follow come from patent US20190256608A1 (GlaxoSmithKline, published 2019).

The experiment concerns the target cynomolgus PD-1 (cynomolgus). The experiment is described as follows: kinetic analysis (bio-light interferometry).

B1: Pembrolizumab (antibody, human IgG4 S228P, kappa, V domains shown)
VH: QVQLVQSGVEVKKPGASVKVSCKASGYTFTNYYMYWVRQAPGQGLEWMGGINPSNGGTNFNEKFKNRVTLTTDSSTTTAYMELKSLQFDDTAVYYCARRDYRFDMGFDYWGQGTTVTVSS
VL: EIVLTQSPATLSLSPGERATLSCRASKGVSTSGYSYLHWYQQKPGQAPRLLIYLASYLESGVPARFSGSGSGTDFTLTISSLEPEDFAVYYCQHSRDLPLTFGGGTKVEIKR
notes: also called MK3475
As for B1, the Kd turned out to be 0.118 nM.
